{"source": "patent US20240398767A1", "about": "“INHIBITORS OF THE MTDH-SND1 PROTEIN COMPLEX FOR CANCER THERAPY” (The Trustees of Princeton University, priority 2021, published 2024)", "binders": {"B1": {"name": "CLuc-MTDH (other)", "chain": "MSGYVNNPEATNALIDKDGWLHSGDIAYWDEDEHFFIVDRLKSLIKYKGYQVAPAELESILLQHPNIFDAGVAGLPDDDAGELPAAVVVLEHGKTMTEKEIVDYVASQVTTAKKLRGGVVFVDEVPKGLTGKLDARKIREILIKAKKGGKSKLGGGSGGGSSSADPNSDWNAPAEEWGNWVDEYPYDVPDYA", "notes": "Expressed in HEK293T cells and used as cell lysate; also called CLuc-MTDH-HA; MTDH-CLuc"}, "B2": {"name": "MTDH (endogenous, SCP28 breast cancer cell lysate) (other, human, UniProt Q86UE4 1-582, looked up)", "chain": "MAARSWQDELAQQAEEGSARLREMLSVGLGFLRTELGLDLGLEPKRYPGWVILVGTGALGLLLLFLLGYGWAAACAGARKKRRSPPRKREEAAAVPAAAPDDLALLKNLRSEEQKKKNRKKLSEKPKPNGRTVEVAEGEAVRTPQSVTAKQPPEIDKKNEKSKKNKKKSKSDAKAVQNSSRHDGKEVDEGAWETKISHREKRQQRKRDKVLTDSGSLDSTIPGIENTITVTTEQLTTASFPVGSKKNKGDSHLNVQVSNFKSGKGDSTLQVSSGLNENLTVNGGGWNEKSVKLSSQISAGEEKWNSVSPASAGKRKTEPSAWSQDTGDANTNGKDWGRSWSDRSIFSGIGSTAEPVSQSTTSDYQWDVSRNQPYIDDEWSGLNGLSSADPNSDWNAPAEEWGNWVDEERASLLKSQEPIPDDQKVSDDDKEKGEGALPTGKSKKKKKKKKKQGEDNSTAQDTEELEKEIREDLPVNTSKTRPKQEKAFSLKTISTSDPAEVLVKNSQPIKTLPPATSTEPSVILSKSDSDKSSSQVPPILQETDKSKSNTKQNSVPPSQTKSETSWESPKQIKKKKKARRET", "notes": "Pulled down with anti-MTDH antibody and Protein-A/G beads; also called metadherin"}, "B3": {"name": "SND1-NLuc (other)", "chain": "EQKLISEEDLVPTVQRGIIKMVLSGCAIIVRGQPRGGPPPERQINLSNIRAGNLARRAAATQPDAKDTPDEPWAFPAREFLRKKLIGKEVCFTIENKTPQGREYGMIYLGKDTNGENIAESLVAEGLATRREGMRANNPEQNRLSECEEQAKAAKKGMWSEGNGSHTIRDLKYTIENPRHFVDSHHQKPVNAIIEHVRDGSVVRALLLPDYYLVTVMLSGIKCPTFRREADGSETPEPFAAEAKFFTESRLLQRDVQIILESCHNQNILGTILHPNGNITELLLKEGFARCVDWSIAVYTRGAEKLRAAERFAKERRLRIWRDYVAPTANLDQKGGGSGGGSGGGSEDAKNIKKGPAPFYPLEDGTAGEQLHKAMKRYALVPGTIAFTDAHIEVNITYAEYFEMSVRLAEAMKRYGLNTNHRIVVCSENSLQFFMPVLGALFIGVAVAPANDIYNERELLNSMNISQPTVVFVSKKGLQKILNVQKKLPIIQKIIIMDSKTDYQGFQSMYTFVTSHLPPGFNEYDFVPESFDRDKTIALIMNSSGSTGLPKGVALPHRTACVRFSHARDPIFGNQIIPDTAILSVVPFHHGFGMFTTLGYLICGFRVVLMYRFEEELFLRSLQDYKIQSALLVPTLFSFFAKSTLIDKYDLSNLHEIASGGAPLSKEVGEAVAKRFHLPGIRQGYGLTETTSAILITPEGDDKPGAVGKVVPFFEAKVVDLDTGKTLGVNQRGELCVRGPMIMSGYVNNPEATNALIDKDG", "notes": "Expressed in HEK293T cells and used as cell lysate; also called Myc-SND1-NLuc; split-luc component"}}, "key": {"SND1-NLuc [1]": {"target": "B3", "test": "split-luciferase complementation, 293T cells", "procedure": "(§1) Luciferase-based screening. Seed HEK293T cells on 3×15 cm dish at 18-24 hr before transfection with 7-8×10⁶ cells per dish targeting 70-80% confluence when start transfection. 20 μg of pCDNA3.1-SND1-NLuc, pCDNA3.1-CLuc-MTDH, or 2 μg of pCDNA3.1-NLuc-CLuc plasmids that described above were transfected to each dish. 72 hr after transfection the cells were lysed with 5 ml of luciferase lysis buffer (2 mM EDTA, 20 mM DTT, 10% glycerol, 1% Triton X-100, 25 mM Tris base, adjusted to pH7.8 with H₃PO₄) at 4° C. for 20 min. The protein lysates were centrifuged at 13,000 rpm for 10 min, and the supernatant were collected.\n(§2) For small chemical compound screening, white, flat-bottom, solid 384-well plates were used. Compounds were added into each well as 0.1 μl of 10 mM DMSO solution (or same amount of DMSO, serve as control). The first and last columns were free, and MTDH wild type ([…]) or mutant ([…]) peptides were added as positive and negative controls right before screening. Same amount of MTDH-CLuc and SND1-NLuc were pre-mixed at 4° C. for 30 min to generate split-luc. 5 μl of split- or linked-luc was added into each well. 15 μl of luciferase assay buffer (25 mM Glycylglycine pH 7.8, 15 mM K₃PO₄ pH 7.8, 15 mM MgSO₄, 4 mM EGTA, 2 mM ATP added just before use, 10 mM DTT added just before use and 1 mM D-Luciferin added just before use) was then added into each well to get a 20 μl reaction system with 50 μM of compounds (peptides) in each well. The plates were incubated at 4° C. for 1 hr and luciferase activity at each well was measured."}, "[2]": {"target": "T1, NLuc (firefly luciferase N-terminal fragment, 1-416aa) (UniProt P08659 1-416 = luciferase)", "T1 construct": "range 1-416; Fragment alone, without SND1", "test": "split-luciferase complementation, 293T cells", "procedure": "as §1, §2"}, "[3]": {"target": "T2, SND1 (endogenous, SCP28 breast cancer cell lysate) (human, UniProt Q7KZF4 2-910)", "T2 construct": "Detected by Western blot after MTDH immunoprecipitation; also called Staphylococcal nuclease domain-containing 1", "T2 sequence (looked up)": "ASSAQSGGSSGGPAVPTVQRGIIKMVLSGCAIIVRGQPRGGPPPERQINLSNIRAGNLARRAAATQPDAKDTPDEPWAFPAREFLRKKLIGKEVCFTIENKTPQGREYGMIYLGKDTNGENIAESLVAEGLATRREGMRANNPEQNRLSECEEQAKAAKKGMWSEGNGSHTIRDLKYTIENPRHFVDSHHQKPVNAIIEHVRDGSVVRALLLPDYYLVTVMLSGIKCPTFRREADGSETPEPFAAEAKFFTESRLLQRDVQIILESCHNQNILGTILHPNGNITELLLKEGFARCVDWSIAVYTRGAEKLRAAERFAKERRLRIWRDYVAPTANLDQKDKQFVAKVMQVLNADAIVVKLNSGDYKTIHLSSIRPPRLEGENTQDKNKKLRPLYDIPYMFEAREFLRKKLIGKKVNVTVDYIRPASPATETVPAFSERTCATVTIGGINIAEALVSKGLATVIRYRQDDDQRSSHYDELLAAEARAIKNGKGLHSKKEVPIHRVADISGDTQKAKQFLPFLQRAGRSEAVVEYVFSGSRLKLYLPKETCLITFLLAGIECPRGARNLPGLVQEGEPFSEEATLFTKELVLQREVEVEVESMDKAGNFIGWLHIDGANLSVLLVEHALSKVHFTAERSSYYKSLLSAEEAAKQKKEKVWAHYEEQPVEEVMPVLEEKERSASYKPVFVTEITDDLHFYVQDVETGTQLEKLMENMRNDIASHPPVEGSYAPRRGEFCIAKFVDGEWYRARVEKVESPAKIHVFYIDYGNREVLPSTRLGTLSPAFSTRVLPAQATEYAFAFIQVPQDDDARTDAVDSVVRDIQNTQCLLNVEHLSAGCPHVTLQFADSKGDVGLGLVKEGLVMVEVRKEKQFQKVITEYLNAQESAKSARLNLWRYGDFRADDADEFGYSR", "test": "Co-IP from SCP28 lysate with 2 µg MTDH antibody", "procedure": "(§3) FIG. 10E, Schematic diagram of Co-IP based confirmation of MTDH-SND1 inhibitory compounds (left). SCP28 cells were lysed for IP assay.2 μg of MTDH antibody together with 500 μM of MTDH wild type (Pep-WT) or mutant (Pep-MT) peptides were added into each 1 ml of samples. Red star indicates wild type MTDH peptide competing off SND1 that binds to MTDH.\n(§4) Co-immunoprecipitation assay (Co-IP), which is a commonly used standard test to determine protein-protein interaction, was next employed to validate the candidates. Lysates of breast cancer cell line SCP28, a single cell-derived subline from the MDA-MB-231 TNBC cell line²⁵, was immunoprecipitated with anti-MTDH antibody alone or together with inhibitors (FIG. 3F and FIG. 10E). The samples were then incubated with Protein-A/G beads to pull down MTDH, followed by Western blot analysis to detect SND1. In such co-TP experiment, MTDH-WT but not MTDH-MT peptide blocks MTDH-SND1 interaction (FIG. 10E). […] Using multiple screening and validation platforms, two classes of compounds, C26s and C32s, were obtained that inhibit MTDH-SND1 interaction."}, "[4]": {"target": "T3, CLuc (firefly luciferase C-terminal fragment, 398-550aa) (UniProt P08659 398-550 = luciferase)", "T3 construct": "Fragment alone, without MTDH", "test": "split-luciferase complementation, 293T cells", "procedure": "as §1, §2"}, "SND1-NLuc [5]": {"target": "B3", "test": "split-luciferase competition assay, HEK293T lysates", "procedure": "as §1\nas §2, with “15 μl of luciferase assay buffer (25 mM Glycylglycine pH 7.8, 15 mM K₃PO₄ pH 7.8, 15 mM MgSO₄, 4 mM EGTA, 2 mM ATP added just before use, 10 mM DTT added just before use and 1 mM D-Luciferin added just before use) was then added into each well to get a 20 μl reaction system with 50 μM of compounds (peptides) in each well.” left out"}, "[6]": {"target": "T2, SND1 (endogenous, SCP28 breast cancer …)", "test": "Co-IP competition, SCP28 lysate, anti-MTDH antibody, Western blot for SND1", "procedure": "as §3, §4"}}, "data": [{"binder": "B1", "values": [{"measurement": "binding result", "setting": "SND1-NLuc [1]", "value": "binds"}, {"measurement": "binding result", "setting": "[2]", "value": "no binding"}]}, {"binder": "B2", "values": [{"measurement": "binding result", "setting": "[3]", "value": "binds"}]}, {"binder": "B3", "values": [{"measurement": "binding result", "setting": "[4]", "value": "no binding"}]}, {"binder": "PNSDANAPAEEAGNW (also called Pep-MT; MTDH mutant peptide)", "note": "[mutant MTDH (MTDH-MT) peptide]", "values": [{"measurement": "binding result", "setting": "SND1-NLuc [5]", "value": "no binding (tested: 50 µM)"}, {"measurement": "binding result", "setting": "[6]", "value": "no binding (tested: 500 µM)"}]}]}
